EC50, neutralization of SARS-CoV-2 (FRNT, Vero E6 cells) and EC50, inhibition of SARS-CoV-2 infection (FRNT, Vero E6 cells) data for 2 substances are collected here from patent US20230346919A1.

For the assay, the target named is Spike (S) protein of the SARS-CoV-2 clinical isolate, strain 2019 n-CoV/USA_WA1/2020 (SARS-CoV-2 strain 2019 n-CoV/USA_WA1/2020) (UniProt P0DTC2). Put plainly: cell-based or functional assay.

The substance mAb S309 (antibody) returned an EC50, neutralization of SARS-CoV-2 (FRNT, Vero E6 cells) of 0.081 µg/mL.

In turn, “human ACE2-Fc (hACE2 residues 1-615, HRV-3C site, human IgG1 Fc) (from UniProt Q9BYF1 18-615) (Fc fusion)” had an EC50, inhibition of SARS-CoV-2 infection (FRNT, Vero E6 cells) of 12.6 µg/mL.
